Source: patent publication EP1034789A1

Molecular target: human MIP-1α (human) (UniProt P10147)
Experiment: 125I-MIP-1α bound to human monocytic cells, Exp. 1, 200X molar excess M-T1

Sequence of UniProt P10147 (P10147 24-92 limits assumed): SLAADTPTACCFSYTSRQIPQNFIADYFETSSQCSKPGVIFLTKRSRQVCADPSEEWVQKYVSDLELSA

Substance: myxoma T1 protein (type-2 CBP)
- Surface Bound MIP-1α: 978 cpm
